In patent US20230134571A1 (INTERNATIONAL AIDS VACCINE INITIATIVE, published 2023):
Where a chain is given by its changes, count along the chain named.

B1: ePGDM9 (antibody, V domains shown)
VH: QAQLVQSGPEVRKPGTSVKVSCKNPGNTLTTYDLHWVRQVPGQGLQWMGWISHEGDKKVIVERFKAKVTIDWDRSTNTAYLQLSGLTSEDTAVYYCAKGSKHRLRDYALYDEDGALNWAVDVDYLANLEFWGQGTAVTVSS
VL: DIVLTQSPLSLSVTPGESASISCKSSQSLIHGDRNNYLAWYVQKPGRSPQLLIDLASERASGVPDRFSGSGSRKDFTLKISRVETEDVGTYYCMQGRESPWTFGQGTKVDIK
B2: PGDM1400 (antibody, V domains shown)
VH: B1 VH with A2V, Q3H, V5T, N24A, T30K, Q39S, E89G, E112D, A126S
VL: B1 VL with I2F, L9H, Q27H, D54Y, E58S, R73D

Columns and labels:
Test in all cases: cell-based or functional assay
[1] = target: HIV Env, isolate 6240_08_TA5_4622 (HIV)
HIV Env, isolate CNE52 = HIV Env, isolate CNE52 (HIV)
[2] = target: HIV Env, isolate AC10.0.29 (HIV)
[3] = target: HIV Env, isolate ZM135M.PL10a (HIV)
[4] = target: HIV Env, isolate HIV-0013095-2.11 (HIV)
[5] = target: HIV Env, isolate HIV-16055-2.3 (HIV)
[6] = target: HIV Env, isolate WITO4160.33 (HIV)
[7] = target: HIV Env, isolate SC422661.8 (HIV)
HIV Env, isolate CNE21 = HIV Env, isolate CNE21 (HIV)
[8] = target: HIV Env, isolate CAP45.2.00.G3 (HIV)
[9] = target: HIV Env, isolate WEAU_d15_410_5017 (HIV)
[10] = target: HIV Env, isolate Ce2010_F5 (HIV)
[11] = target: HIV Env, isolate 1012_11_TC21_3257 (HIV)
[12] = target: HIV Env, isolate ZM249M.PL1 (HIV)
[13] = target: HIV Env, isolate 3817.v2.c59 (HIV)
HIV Env, isolate TRO.11 = HIV Env, isolate TRO.11 (HIV)

Binder	IC80 (µg/ml) with constrains [1]	IC80 (µg/ml) with constrains (HIV Env, isolate CNE52)	IC80 (µg/ml) with constrains [2]	IC80 (µg/ml) with constrains [3]	IC80 (µg/ml) with constrains [4]	IC80 (µg/ml) with constrains [5]	IC80 (µg/ml) with constrains [6]	IC80 (µg/ml) with constrains [7]	IC80 (µg/ml) with constrains (HIV Env, isolate CNE21)	IC80 (µg/ml) with constrains [8]	IC80 (µg/ml) with constrains [9]	IC80 (µg/ml) with constrains [10]	IC80 (µg/ml) with constrains [11]	IC80 (µg/ml) with constrains [12]	IC80 (µg/ml) with constrains [13]	IC80 (µg/ml) with constrains (HIV Env, isolate TRO.11)
B1	6.6 µg/mL	7.39 µg/mL	0.298 µg/mL	> 100 µg/mL	> 100 µg/mL	0.006 µg/mL	0.009 µg/mL	5.33 µg/mL	0.007 µg/mL	0.005 µg/mL	0.009 µg/mL	> 100 µg/mL	0.167 µg/mL	0.008 µg/mL	0.64 µg/mL	0.652 µg/mL
B2	> 100 µg/mL	> 100 µg/mL	2.19 µg/mL	> 100 µg/mL	> 100 µg/mL	0.013 µg/mL	0.013 µg/mL	62.8 µg/mL	0.011 µg/mL	0.005 µg/mL	0.3 µg/mL	> 100 µg/mL	0.303 µg/mL	0.101 µg/mL	> 100 µg/mL	0.823 µg/mL
